What was measured:
[1] = tested on: α, β-tubulins; test: Pulldown assay, His-S100P beads with COS-7 cell lysates; format: binding, monkey; conditions: 1 mM CaCl2 vs EGTA
Experimental: […] After brief sonication, the lysates were centrifuged at 15,000g for 30 min to remove insoluble components. The supernatants were then applied to His-S100P columns or control column with His-binding beads only. After extensive washings with 10 mM Tris–HCl, pH 7.4, 150 mM NaCl, 0.5% (v/v) Tween 20, the bound proteins were eluted with 300 mM imidazole and then subjected to Western blotting using mouse anti-S100P mAb and anti-tubulin antibodies (R&D Systems, Abingdon, U.K.).

[2] = tested on: COS-7 cells; test: Living colour expression: YFP-S100P with CFP-EB3; format: cell-based, monkey; conditions: high YFP-S100P, 24 h
Experimental: S100P fused to yellow fluorescent protein (YFP), and EB3 fused to cyan fluorescent protein (CFP) (EB3-CFP) expression plasmids, pYFP-S100P and pCFP-EB3 were constructed, respectively. COS-7 cells were transiently transfected with the two plasmids and images were recorded using a LSM 5 confocal microscope 24 h after transfection. CFP: excitation = 436 nm, emission = 480 nm; YFP: excitation = 500 nm, emission = 520 nm.

[3] = tested on: tubulin polymerisation in COS-7 S10 cells; test: In vivo tubulin polymerisation assay, COS-7 / COS-7 S10; format: cell-based, monkey
Experimental: HeLa and S100P-inducible HeLa, COS-7 and S100P-inducible COS-7 cells were routinely cultured with or without doxycycline (1 µg/ml) and treated with 33 µM nocodazole for 24 h to synchronise the cells. Then the nocodazole was washed away (First release) and the synchronised cells were cultured in normal medium for 4 h to allow them to complete cell division. The nocodazole was then added again for 4 h to dissociate all the MTs. After this time, nocodazole was again removed by extensive washings (Second release) and tubulin was allowed to polymerise in the interphase of the cell cycle for different times. The cells were treated with buffer (10 mM Tris–HCl, 150 mM KCl, pH 7.4, 2% (v/v) Triton X-100) and the Triton-X100-insoluble tubulins (representing the newly formed MTs) were solubilised in Sample Buffer and quantified by Western blotting. To test the effect of tubulin-derived peptides, 20 µM T-DIC, T-DLV, T-IMN and tag-peptide alone (Supplementary Table S3) in 0.25% (v/v) DMSO as solvent, as well as the solvent control 0.25% (v/v) DMSO were added immediately after the second release in Sample Buffer and quantified at the different time points by Western blotting.

[4] = tested on: HeLa-A3 cells; test: Cell adhesion assays, HeLa-A3; format: cell-based, human; conditions: HeLa A3, S100P induced vs uninduced, weak trypsin digestion, n = 3
Experimental: (§1) For kinetics of attachment either HeLa-A3 or COS-7 S10 cells were induced with 1 µg/ml doxycycline 48 h prior to experiment and 2 × 10^5 uninduced or induced cells in 1 ml were added to 24 well tissue culture dishes and allowed to adhere at 37°C. At the given time (30 min to 2 h) cells were washed 2× with PBS and detached with 250 µl 0.05% (w/v) trypsin in versene for 5 min at 37°C, neutralised in serum-containing media (SCM), counted and the percent of seeded cells recorded. For strength of adhesion, the same cells were seeded in 24 well tissue culture dishes so as to yield 80% confluence in 24 h. In all cases identical dishes were set up for test and control. After 24 h, wells were washed 2× and detached with 250 µl, 0.0125% (w/v) trypsin in versene for 5 min at 37°C. Wells were then carefully washed 2× to remove weak binders. Trypsin in versene (250 µl of 0.05% (w/v)) was then added to both test dish and control dish for 5 min to remove all cells from the well, neutralised with SCM and counted. The proportion of cells remaining after the weak digestion step was determined from the ratio of results from test and control plates. All assays were performed in triplicate.

[5] = tested on: α and β-tubulin subunits and half molecules; test: Gel overlay assay; format: binding, human; conditions: 3 µg/ml S100P, 1 μM proteins, 4°C overnight
Experimental: The coding sequences for full length (human) α-tubulin and for N-terminal and C-terminal halves of α or β-tubulin were generated using PCR with specific primers shown in Supplementary Table S1 and sub-cloned into pET16(b) for expressing and purifying His-tagged full-length α-tubulin and His-tagged tubulin fragments in E. coli, as described previously. β-tubulin was purchased from Abcam.
Equal molar proteins (1 μM) were subjected to SDS PAGE on 10% (w/v) polyacrylamide gels. One gel was stained with Coomassie Blue to check equal loading and the other electroblotted onto PVDF membrane. Three µg/ml S100P in Gel Overlay Buffer were added to the membrane and the contents incubated at 4°C overnight. After extensive washing, the presence of bound S100P was probed with mouse anti-S100P as described for Western blotting.

[6] = tested on: COS-7 S10 cells; test: Boyden chamber cell migration, S100P-inducible COS-7; format: cell-based, monkey; conditions: 24 h
Source text: Cell migration rate (%) = M/G × 100.

[7] = tested on: Rama 37 cells; conditions: inducible Rama 37 (range stated for Rama 37 and HeLa) ref [10],[37]; cited from earlier work
Source text: (§2) In our previous study, we reported that S100P enhances cell migration by binding to and affecting distribution of NMIIA filaments in HeLa and Rama 37 cells. We now sought to determine whether S100P overexpression could induce such changes in cells when NMIIA was absent. The monkey kidney COS-7 cells have been reported to lack NMIIA [28] and this was confirmed in comparison with its presence in human HeLa and rat Rama 37 cells (Figure 1A). We then generated three S100P-inducible COS-7 cell lines using doxycycline as the inducing agent, the largest increase being in clone S10 (Figure 1B ...

[8] = tested on: HeLa cells; conditions: inducible HeLa (range stated for Rama 37 and HeLa) ref [10],[37]; cited from earlier work
Source text: as §2

[9] = tested on: COS-7 S10 cells; test: Cell adhesion assays, COS-7 S10; format: cell-based, monkey
Experimental: as §1

B1: S100P: recombinant or doxycycline-induced overexpressed S100P protein (protein)
chain: MTELETAMGMIIDVFSRYSGSEGSTQTLTKGELKVLMEKELPGFLQSGKDKDAVDKLLKDLDANGDAQVDFSEFIVFVAAITSACHKYFEKAGLK
α, β-tubulins captured by His-S100P [1]: detected in eluates, but only when 1 mM CaCl2 but not EGTA was originally present
distribution of peripheral MTs [2]: more dispersed distribution of cyan-labelled peripheral MTs
reduction in tubulin polymerisation on S100P induction ([3]; COS-7 S10, 4 h after second release, 1 µg/ml doxycycline): ~30%
near steady-state reduction in biochemical assembly of MTs ([3]; Figure 5E, COS-7 S10): 33%
fold decrease in strength of adhesion [4]: 1.58 fold
binding of S100P to tubulin subunits and half molecules [5]: interacted with both α and β-tubulin subunits and with all four half molecules
S100P-enhanced cell migration ([6]; COS-7 S10, doxycycline 1 µg/ml): 2–3 folds
fold increase in relative cell migration rate on S100P induction ([6]; three inducible COS-7 lines S7, S10, S23, 1 µg/ml doxycycline): 2.5 to 2.9 fold
fold increase in migration on S100P overexpression [7]: 3.2 to 4.8 fold
fold increase in migration on S100P overexpression [8]: 3.2 to 4.8 fold
change in rate and strength of adhesion (in words) ([9]; COS-7 S10, 1 µg/ml doxycycline, P ≥ 0.18): no significant decrease in the rate of adhesion (Supplementary Figure S1) or significant decrease in strength of adhesion
change in strength of adhesion (in words) ([9]; COS-7 S10, S100P induced vs uninduced, n = 3): significant change in the strength of adhesion upon induction of S100P (t = 0.6, P = 0.95, n = 3)

From publication PMC7108782, “Direct interaction of metastasis-inducing S100P protein with tubulin causes enhanced cell migration without changes in cell adhesion” (Biochemical Journal, 2020)
